Values belong to the binder of their own block, whether it stands above or below them.
Columns and labels:
[1] = biological target: T1, B-cell lymphoma-extra large (Bcl-xL) (human, UniProt Q07817 1-233); assay: IP with monoclonal anti-ARTS antibody from HeLa wt lysate, Western blot (FIG. 9); binding still seen after 24 h of ABT-263
T1 construct: also called Bch xL

[2] = biological target: T2, X-linked inhibitor of apoptosis protein (XIAP) (human, UniProt P98170 1-497); assay: IP of the mitochondrial fraction with anti-Bcl-2 antibody, Western blot (FIG. 4E)
T2 construct: Endogenous XIAP in cell lysates; also called IAP3; BIRC
T2 sequence (P98170 whole entry): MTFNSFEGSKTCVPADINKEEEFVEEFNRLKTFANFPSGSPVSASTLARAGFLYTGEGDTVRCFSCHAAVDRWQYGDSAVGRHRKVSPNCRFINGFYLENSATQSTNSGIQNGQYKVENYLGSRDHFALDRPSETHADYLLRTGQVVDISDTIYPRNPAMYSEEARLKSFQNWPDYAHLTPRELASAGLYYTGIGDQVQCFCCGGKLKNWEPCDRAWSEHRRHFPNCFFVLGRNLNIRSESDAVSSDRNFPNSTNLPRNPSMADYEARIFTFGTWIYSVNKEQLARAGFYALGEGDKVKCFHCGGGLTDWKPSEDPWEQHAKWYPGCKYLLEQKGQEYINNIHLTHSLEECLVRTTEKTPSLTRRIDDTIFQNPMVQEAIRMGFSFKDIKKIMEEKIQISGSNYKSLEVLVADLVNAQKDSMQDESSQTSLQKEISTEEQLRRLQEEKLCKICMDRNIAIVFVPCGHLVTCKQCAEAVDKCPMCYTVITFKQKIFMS
Description: Mitochondrial fraction was immunoprecipitated using anti-Bcl-2 antibody. The precipitate was analyzed by Western blotting.

[3] = biological target: T2, X-linked inhibitor of apoptosis protein …; assay: IP with anti-ARTS monoclonal antibody from COS-7 cells transfected with the 6-Myc-ARTS construct; the partner is endogenous in COS-7 (FIG. 4B)
Description: FIG. 4B. […] The precipitate was analyzed by Western blotting.

[4] = biological target: T3, B-cell CLL/lymphoma 2 (Bcl-2) (human, UniProt P10415 1-239); assay: immunoprecipitation of transfected HeLa lysates with anti-Bcl-2 antibody, Western blot with anti-ARTS (FIG. 11A)
T3 construct: Used as endogenous Bcl-2 (HeLa, BT-549) or from a transfected Bcl-2 construct; also called Bch 2; endogenous Bcl-2
T3 sequence (P10415 whole entry): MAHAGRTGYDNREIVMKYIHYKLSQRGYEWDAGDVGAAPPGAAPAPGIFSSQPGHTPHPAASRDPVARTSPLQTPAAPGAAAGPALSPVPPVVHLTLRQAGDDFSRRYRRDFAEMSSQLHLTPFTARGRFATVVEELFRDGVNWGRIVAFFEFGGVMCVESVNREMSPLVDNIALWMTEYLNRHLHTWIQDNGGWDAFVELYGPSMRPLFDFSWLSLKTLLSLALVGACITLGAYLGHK

T1 sequence (Q07817 whole entry G70A): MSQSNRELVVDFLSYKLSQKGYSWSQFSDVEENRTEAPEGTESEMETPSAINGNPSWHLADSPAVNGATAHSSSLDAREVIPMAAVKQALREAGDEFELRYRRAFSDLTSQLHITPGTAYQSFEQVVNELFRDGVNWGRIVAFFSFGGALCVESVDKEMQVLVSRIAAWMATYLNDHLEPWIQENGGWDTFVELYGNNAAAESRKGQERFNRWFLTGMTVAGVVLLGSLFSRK

- binding result [1]: binds
- binding result [2]: binds
B1: Apoptosis Related Protein in the TGF-beta Signaling Pathway (ARTS) (other)
chain: MIKRFLEDTTDDGELSKFVKDFSGNASCHPPEAKTWASRPQVPEPRPQAPDLYDDDLEFRPPSRPQSSDNQQYFCAPAPLSPSARPRSPWGKLDPYDSSEDDKEYVGFATLPNQVHRKSVKKGFDFTLMVAGESGLGKSTLVNSLFLTDLYRDRKLLGAEERIMQTVEITKHAVDIEEKGVRLRLTIVDTPGFGDAVNNTECWKPVAEYIDQQFEQYFRDESGLNRKNIQDNRVHCCLYFISPFGHGYGPSLRLLAPPGAVKGTGQEHQGQGCH
notes: also called FL ARTS; full length ARTS

- binding result [3]: binds
B2: 6-Myc-ARTS (other)
chain: MIKRFLEDTTDDGELSKFVKDFSGNASCHPPEAKTWASRPQVPEPRPQAPDLYDDDLEFRPPSRPQSSDNQQYFCAPAPLSPSARPRSPWGKLDPYDSSEDDKEYVGFATLPNQVHRKSVKKGFDFTLMVAGESGLGKSTLVNSLFLTDLYRDRKLLGAEERIMQTVEITKHAVDIEEKGVRLRLTIVDTPGFGDAVNNTECWKPVAEYIDQQFEQYFRDESGLNRKNIQDNRVHCCLYFISPFGHGYGPSLRLLAPPGAVKGTGQEHQGQGCH
notes: Expressed by transient transfection in COS-7 cells; also called pSC2-6Myc ARTS; not shown: 6xMyc tag of pSC2-6Myc

- binding result [4]: no binding
B3: 128 amino acids N' terminus deletion mutated ARTS (other)
chain: MVAGESGLGKSTLVNSLFLTDLYRDRKLLGAEERIMQTVEITKHAVDIEEKGVRLRLTIVDTPGFGDAVNNTECWKPVAEYIDQQFEQYFRDESGLNRKNIQDNRVHCCLYFISPFGHGYGPSLRLLAPPGAVKGTGQEHQGQGCH

Source: US20150018285A1 (CARMEL HAIFA UNIVERSITY ECONOMIC, published 2015)
